From article PMC4702668 come the findings set out here.

As usually defined, the stoichiometry N is the number of molecules, sites or subunits per partner or assembly.

For experiment [1], the target named is B41 SOSIP.664 trimer (HIV-1). Kind of experiment: cross-linking.
Experiment [2] deals with BG505 SOSIP.664 trimer, unmodified (HIV-1). Nature of the experiment: cross-linking.

In experiment [1], B41 SOSIP.664 trimer (complex) registered a stoichiometry N of 3.
Take “BG505 SOSIP.664 trimer, unmodified (complex)”: in experiment [2], the stoichiometry N came out at 3.
